Drawing on paper PMC1369289, this text covers binding result and binding signal for two molecules.

The target in one series is T1, JunB selected fragment (Mus musculus, UniProt P09450 265-328).
T1 sequence: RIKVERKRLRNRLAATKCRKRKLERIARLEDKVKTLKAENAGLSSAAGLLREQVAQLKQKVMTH
Description: EMSA.

The next series concerns the target T2, JunD selected fragment (Mus musculus, UniProt P15066 262-325).
T2 sequence: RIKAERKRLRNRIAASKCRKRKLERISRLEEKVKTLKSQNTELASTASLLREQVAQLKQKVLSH
Description: EMSA. A general note: Mobility shift assays separate free from complexed probe on a gel.

The target in the next series is c-Jun selected fragment (Mus musculus, UniProt P05627 255-313). Description: EMSA.
Series [1] has as its target c-Fos model fragment;c-Jun model fragment (Mus musculus?;Mus musculus?, UniProt P01101;P05627 118-212;237-334, |). The series is described as follows: mRNA display affinity selection, qPCR. On the technique in general: Real-time PCR tracks product formation cycle by cycle.

Sequence of c-Fos model fragment;c-Jun model fragment (P01101 118-212, chain 1 of 2): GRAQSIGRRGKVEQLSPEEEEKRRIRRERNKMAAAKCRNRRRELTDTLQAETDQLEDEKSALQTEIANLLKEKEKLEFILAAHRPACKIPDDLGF
Sequence of c-Fos model fragment;c-Jun model fragment (P05627 237-334, chain 2 of 2): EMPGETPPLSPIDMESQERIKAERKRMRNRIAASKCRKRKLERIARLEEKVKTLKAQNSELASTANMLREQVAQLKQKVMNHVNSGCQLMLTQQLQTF
Sequence of c-Jun selected fragment (P05627 255-313): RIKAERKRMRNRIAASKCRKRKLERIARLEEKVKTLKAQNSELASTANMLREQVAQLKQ

B1: TRE EMSA probe (dsDNA)
DNA 1: TTCTCCTATGACTCATCCAT
DNA 2: AATGGATGAGTCATAGGAGA
For the molecule B1, the binding result in the series with JunB selected fragment, in the series with JunD selected fragment and with c-Jun selected fragment was “binds” each time.

B2: TRE bait DNA (dsDNA)
DNA 1: TGATGACTCATCTCCTATGACTCATCCATTGCATGACTCAGACTTGATGAGTCAGCCGAGCATGAGTCAGACACCTTGCCTGAGCTCAGA
DNA 2: TTCTGAGCTCAGGCAAGGTGTCTGACTCATGCTCGGCTGACTCATCAAGTCTGAGTCATGCAATGGATGAGTCATAGGAGATGAGTCATCA
As to B2, the binding signal in series [1] was approximately 100 fold enrichment.
